For 140 substances, amyloid nucleation score results are on record in the supplement of paper PMC12042874.

The nature of the data set: amyloid nucleation score (Sup35N fusion, yeast selection) (log enrichment); library NNK2; higher = more nucleation; inactive = no reads after selection. Put shortly: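 Sup35N was fused to peptides of 20 random codons and expressed in psi-negative yeast, which were induced with 100 μM copper sulfate for 24 hours and then grown on medium lacking adenine and uracil for 7 days at 30°C. Plasmid inserts from input and output were sequenced on Illumina. The nucleation score is the DiMSum log enrichment of output over input reads, centred on the mode score of non-aggregating sequences. Sequences with under 100 input reads were left out, and random libraries had three technical output replicates.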

± gives the uncertainty stated by the source.

Substance ASGVNFGT returned an amyloid nucleation score of -0.215 ± 0.45.

On to LHMECLKDKSCNNSSADVRG, for which the amyloid nucleation score was found to be 0.374 ± 0.62.

MLVEMYLFVNLCLYMRMSFR yielded an amyloid nucleation score of 0.018 ± 0.5.

Regarding SVLAFKSFGSHCIGYIYVNL, the amyloid nucleation score result was “inactive”.

Take QSFFLN: the amyloid nucleation score entry is “inactive”.

The substance KTFRCRRCGNN registered an amyloid nucleation score of 0.721 ± 0.6.

In the case of GACGVSEVMHRVVFRGRLKR, the amyloid nucleation score amounted to 0.4 ± 0.39.

For WWCMLFNGEGGDCDILDFSS, the amyloid nucleation score was -0.385 ± 0.49.

In turn, SFLVSFHPMS returned an amyloid nucleation score of -1.33 ± 0.48.

Take YDRDCTRPCSPSSRGNFRDE: the amyloid nucleation score result is “inactive”.

TVPGNEEV came in with an amyloid nucleation score of 0.028 ± 0.53.

AYDFGVA registered an amyloid nucleation score of -0.263 ± 1.1.

Turning to CVVDLDPCNGDAGLSSYTIS, the amyloid nucleation score was 0.594 ± 0.13.

Substance LNDHNFLCPLTYKVRRLYNN displayed an amyloid nucleation score of -1.53 ± 0.53.

As to IKKGRWAYGPSLVCKNAMRE, the amyloid nucleation score was 0.799 ± 0.74.

Consider MHSLISELLLPNTIFGSAGI, for which the amyloid nucleation score was -0.707 ± 0.76.

The substance GVSNNALCSNRITSLNRPML had an amyloid nucleation score of 0.313 ± 0.17.

For the substance VLDTMYGTDIQRRTMGKANT, the amyloid nucleation score came to 0.391 ± 0.36.

In turn, KDGEVAAMPGRGVHQVMGEK returned an amyloid nucleation score of 0.325 ± 0.49.

In turn, SVQSSWLNLLAVYIVFCCQR registered an amyloid nucleation score of -0.833 ± 0.54.

The substance RDCIRAVSCVIENTGPSAYE showed an amyloid nucleation score of 0.049 ± 0.56.

Substance SLSVSTAVIVITLTNGEFIG had an amyloid nucleation score of 2.64 ± 0.1.

VLAGLMVNSGVL came in with an amyloid nucleation score of -0.34 ± 0.3.

The substance DKPLQWHGCVRKKSTRGRGW showed an amyloid nucleation score of 0.927 ± 0.45.

As for VSSHNCWFFRGSGWFLFHHW, the amyloid nucleation score result was “inactive”.

Substance AKLLSAVVWDCHWV registered an amyloid nucleation score of 5.17 ± 0.055.

For NGFNYFKMW, the amyloid nucleation score is -1.65 ± 1.1.

GCGSPQSTFPRERCQVLVTA: the amyloid nucleation score was 0.829 ± 0.49.

SNSFVVFSRVVTRKFVCVLW showed an amyloid nucleation score of -0.691 ± 0.46.

In the case of HCLFSGYYLKLN, the amyloid nucleation score result was “inactive”.

RNALDTDAAE showed an amyloid nucleation score of 0.323 ± 0.55.

In turn, WSPIGSFRCCGWCSSHQVRI registered an amyloid nucleation score of 0.179 ± 0.57.

For VLYGVCIVCCSWSMTSC, the amyloid nucleation score amounted to 0.959 ± 0.6.

IDSILICIMHDCIYIEYLRN: the amyloid nucleation score came out at 4.44 ± 0.094.

As to LNMVLDF, the amyloid nucleation score result was “inactive”.

Consider TFATYTISNCLYVPRPVT, for which the amyloid nucleation score was 0.879 ± 0.19.

VLIRSSDNWWAEGSGVLGSC: the amyloid nucleation score is 0.201 ± 1.

With SWCCTSIYHVRLW, the amyloid nucleation score was 9.427 ± 0.058.

In the case of VDRNVTSRSQVTSSFSWDIV, the amyloid nucleation score entry is “inactive”.

For FIHTRRCKYGWTSRFKTLTW, the amyloid nucleation score was 0.105 ± 1.1.

In turn, LGLTSHTVPKCRCVGLMLMV came in with an amyloid nucleation score of 0.438 ± 0.29.

In turn, LITQKHFTRVTNMPIRLCSL registered an amyloid nucleation score of -0.491 ± 0.41.

ENNVKLIRNTTNTVVYHLIP: the amyloid nucleation score was 7.64 ± 0.06.

In the case of SHTVGFSRAVRVCRGTDHT, the amyloid nucleation score worked out at 0.72 ± 0.38.

Regarding SDEIECCKYFFGYL, the amyloid nucleation score came out at 5.347 ± 0.047.

In the case of TPSFLLMICRNMVLGCG, the amyloid nucleation score came to 0.472 ± 0.8.

On to NQRVLLLLKSVLYMMVAK, for which the amyloid nucleation score result is “inactive”.

Regarding CKSFNSFSETPKYAKVVPRA, the amyloid nucleation score came out at 0.633 ± 0.56.

Substance VYIAAHTCIC had an amyloid nucleation score of 4.93 ± 0.079.

Turning to YDGFDITYSYDLSVVFCVDR, the amyloid nucleation score was found to be 0.046 ± 0.44.

As to IRFNAYLRDEDYSKIREVLG, the amyloid nucleation score was -1.41 ± 0.54.

IFRFARSNTYFRGESME: the amyloid nucleation score was 4.08 ± 0.095.

Consider VFELFAMCSVSKCCGVSSVT, for which the amyloid nucleation score was 1.46 ± 0.4.

Take MHMYMRSGFLLLFVSWVREC: the amyloid nucleation score is -0.958 ± 0.76.

In turn, KDPLNYNSYSVLLDIWWNLS had an amyloid nucleation score of 1.57 ± 0.15.

On to VCRHFVRVKDQMDRTFNDKQ, for which the amyloid nucleation score is 0.18 ± 0.28.

As for GTLFIRSPYFCL, the amyloid nucleation score was -0.478 ± 0.61.

In turn, RNGVLTEARHLSVSGEERRV showed an amyloid nucleation score of -0.316 ± 0.8.

As for SNWCGFSSTIKSESY, the amyloid nucleation score entry was “inactive”.

In the case of CSVRSSAIYIRSCHHGWFYC, the amyloid nucleation score was -1.19 ± 1.1.

CYSTLGLSG registered an amyloid nucleation score of 0.516 ± 0.81.

For the substance SFDVYVEARLMDSVTGLDRI, the amyloid nucleation score is 0.437 ± 0.32.

For the substance FSRVESEIHSHWPW, the amyloid nucleation score came to 5.639 ± 0.041.

Substance NIQDLARSLDRDWTYIGIES showed an amyloid nucleation score of 3.65 ± 0.079.

Substance SGCVA showed an amyloid nucleation score of 0.474 ± 0.24.

In turn, SLYFLTGWSFMMDQGVSTPC displayed an amyloid nucleation score of 6.934 ± 0.058.

Substance ESSSVKPPVRFLW displayed an amyloid nucleation score of 0.455 ± 0.64.

In the case of TWLIRPKWVSVQVIRMLPMV, the amyloid nucleation score amounted to 1.11 ± 0.41.

Take KQLMRGIWDRG: the amyloid nucleation score was -0.217 ± 0.79.

With PRGEFTWWSLGIIPNRWQCR, the amyloid nucleation score was -0.771 ± 1.1.

Turning to VMGYGKRLMSHLGMKSRTRL, the amyloid nucleation score worked out at 0.468 ± 0.29.

Turning to YFNSLTQISSFRKFSRPLHS, the amyloid nucleation score came out at 0.033 ± 0.38.

Take LSDCE: the amyloid nucleation score entry is “inactive”.

Take FLSYFCIIFSTNLKLSSK: the amyloid nucleation score was 2.1 ± 0.15.

SFGCINTCFCMCSCFVREMD: the amyloid nucleation score was found to be 1.5 ± 0.14.

As to YSGLKCALCRCC, the amyloid nucleation score was 1.94 ± 0.3.

The substance LGLCEVNMFNIRHFTLRSCY displayed an amyloid nucleation score of 0.219 ± 1.

As for VYEKVVLGKDFVM, the amyloid nucleation score is -0.28 ± 0.79.

LATNNVS came in with an amyloid nucleation score of 0.979 ± 0.67.

PAWSITLVPLLHTGCSDTKR came in with an amyloid nucleation score of 0.582 ± 0.31.

As for ITINSMSPRLPIRLRVVWKG, the amyloid nucleation score result is “inactive”.

Consider TLFSYEYVYKFMGPRFKGAG, for which the amyloid nucleation score was -0.746 ± 0.54.

The substance LKVAVLVSGLGLA showed an amyloid nucleation score of 0.54 ± 0.46.

In turn, GNVLTVIKAKDGS came in with an amyloid nucleation score of -0.606 ± 0.49.

Substance MVLIYRLCQSLRLRHGVGVK yielded an amyloid nucleation score of 4.33 ± 0.1.

In turn, IQRPADRIQHMTMWHTQDLV came in with an amyloid nucleation score of 1.14 ± 0.37.

In turn, SISHQRMWKGCADEII had an amyloid nucleation score of -0.242 ± 1.1.

SKLEENIPKLVTRYQCGTGR yielded an amyloid nucleation score of 0.143 ± 0.37.

Take NDWFCVVY: the amyloid nucleation score is -1.48 ± 0.42.

For the substance EFTAFYGQEFKW, the amyloid nucleation score stood at 0.182 ± 1.1.

YSGAYRLHYGFHIIICVCRW yielded an amyloid nucleation score of 3.21 ± 0.066.

As for HHLKGPSQPSIVEIFE, the amyloid nucleation score was -0.081 ± 0.31.

Regarding LLFIICTDSFRLPTANGELY, the amyloid nucleation score was -1.17 ± 0.41.

VERFLPVCFIPLISKRWTMY displayed an amyloid nucleation score of 0.283 ± 0.54.

Regarding LTLHAVWI, the amyloid nucleation score was -0.022 ± 0.27.

VATGLRAWWWTGKEEVGLVS gave an amyloid nucleation score of 1.69 ± 0.24.

For NFILLDLLSLAICASRVLWA, the amyloid nucleation score was determined as 1.56 ± 0.087.

VTYFTILNHMCW returned an amyloid nucleation score of 6.602 ± 0.04.

Take SYDPSVMAVGSH: the amyloid nucleation score was -0.135 ± 0.33.

Take RMVVVVSKRY: the amyloid nucleation score worked out at 1.73 ± 0.17.

In the case of LAHGPWGVSGDSV, the amyloid nucleation score worked out at 0.019 ± 1.1.

The substance RVTSEIWGCGGGFREECIKE gave an amyloid nucleation score of 0.143 ± 0.5.

The substance AVRYSLFF returned an amyloid nucleation score of 5.09 ± 0.054.

Regarding KCRLSIF, the amyloid nucleation score entry was “inactive”.

In turn, HMMFKSPYRCLLLNLTGYVL had an amyloid nucleation score of 0.934 ± 0.25.

The substance DYLRYRYSMFCTCPAVTQS returned an amyloid nucleation score of -0.567 ± 0.78.

Turning to GLVRPLSLMVETANAVHG, the amyloid nucleation score came to 1.39 ± 0.35.

In turn, CRPGRLYVQIIFISMIRDNR came in with an amyloid nucleation score of -0.513 ± 0.48.

For the substance IPNSGRGWSPAWPKMALTYS, the amyloid nucleation score is 0.746 ± 0.24.

WEITLVNGSWVLESRTQRHF had an amyloid nucleation score of 4.06 ± 0.079.

Substance FHVKIGW displayed an amyloid nucleation score of -0.086 ± 0.33.

Consider YMSPAH, for which the amyloid nucleation score was found to be 0.606 ± 0.6.

On to NFLGGLNRFLNCSSM, for which the amyloid nucleation score is -0.683 ± 1.1.

The substance FLRYHNAGALENIRYVSCLC had an amyloid nucleation score of -0.253 ± 0.56.

Consider SWVNMIMNMSLHTDIRYMLY, for which the amyloid nucleation score was found to be 1.66 ± 0.25.

On to PEMWHYMRFSSIKIRLTSKF, for which the amyloid nucleation score is -0.016 ± 0.65.

As to HRMAPMGVISGNVLLPLSVW, the amyloid nucleation score result is “inactive”.

In turn, MVKLFSLSTS displayed an amyloid nucleation score of -0.533 ± 0.2.

NRFQYGCNSGSMTVWGALWF displayed an amyloid nucleation score of 0.706 ± 0.81.

LWIIPQELGLCLMCGVVCCV: the amyloid nucleation score was -1.41 ± 0.75.

As for YRFAGYVTPRFGYKSHNISL, the amyloid nucleation score was -1.22 ± 1.1.

For the substance YTMGLVSFCLQLGSASFDI, the amyloid nucleation score is 3.56 ± 0.12.

MKVPVRIRWVPLFSDFTYQV showed an amyloid nucleation score of -0.736 ± 0.36.

NVHDSLFWQFVIVNYTIGLS came in with an amyloid nucleation score of 3.38 ± 0.042.

Substance NYLLMR yielded an amyloid nucleation score of 0.414 ± 0.35.

Regarding DSDLLVTHMVMLYKHVE, the amyloid nucleation score came out at 3.79 ± 0.065.

Regarding FDGLIFSITRTLVY, the amyloid nucleation score is -1.42 ± 1.1.

The substance VTVCC showed an amyloid nucleation score of 1.69 ± 0.2.

CPRVSVSSVLMGKLFL showed an amyloid nucleation score of -1.15 ± 0.54.

As to KTLFINLHSCCANVGYAVRW, the amyloid nucleation score is 4.87 ± 0.058.

The substance GVIWTRAVANCIVLSGMS returned an amyloid nucleation score of -0.149 ± 0.55.

In turn, GHMQYSYFLDLYSKLFCVFN yielded an amyloid nucleation score of 4.52 ± 0.062.

On to QNNKILFWQ, for which the amyloid nucleation score is 0.039 ± 0.31.

The substance LRRKEVKWLCL displayed an amyloid nucleation score of 0.754 ± 0.47.

On to ILLFQSAYHKSIEIWGNESF, for which the amyloid nucleation score was determined as 4.21 ± 0.043.

With PTRIFSCSRSGGWYYL, the amyloid nucleation score is -0.831 ± 0.32.

The substance PCHFVCDCTRMASTTVIHV had an amyloid nucleation score of 0.01 ± 0.45.

SKGIDSEIHKRHRVRD gave an amyloid nucleation score of -0.206 ± 0.54.

RLVSKEATCPR came in with an amyloid nucleation score of -0.058 ± 0.54.

Turning to QFSCRCN, the amyloid nucleation score was determined as 0.011 ± 0.79.
